Measurements from patent US20190241671A1 (Merck KGaA, published 2019).

T1: CD19 antigen on Daudi lymphoma cells (human, UniProt P15391 20-556)
T1 construct: whole, on cells; also called Daudi cells
T1 sequence (looked up): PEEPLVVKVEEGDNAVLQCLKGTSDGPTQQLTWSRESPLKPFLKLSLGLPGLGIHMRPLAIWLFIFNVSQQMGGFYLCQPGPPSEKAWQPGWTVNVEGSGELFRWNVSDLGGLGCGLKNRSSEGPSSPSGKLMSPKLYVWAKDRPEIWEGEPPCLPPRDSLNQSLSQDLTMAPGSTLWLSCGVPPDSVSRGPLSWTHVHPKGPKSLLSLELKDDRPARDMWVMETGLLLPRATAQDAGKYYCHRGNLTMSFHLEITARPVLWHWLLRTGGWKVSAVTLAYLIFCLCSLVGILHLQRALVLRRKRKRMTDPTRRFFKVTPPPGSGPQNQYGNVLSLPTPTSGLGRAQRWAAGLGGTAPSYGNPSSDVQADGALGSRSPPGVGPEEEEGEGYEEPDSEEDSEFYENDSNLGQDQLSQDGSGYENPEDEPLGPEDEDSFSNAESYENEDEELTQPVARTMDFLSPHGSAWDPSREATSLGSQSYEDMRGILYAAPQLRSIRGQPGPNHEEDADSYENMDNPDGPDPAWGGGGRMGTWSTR


Experiments:
[1] = target: T1, CD19 antigen on Daudi lymphoma cells; experiment: FACS competition on Daudi cells; unlabeled antibody 100 ng/ml (1x) vs competitor biotin-B4 VH0/VK0 100 ng/ml
Method: (§1) Briefly, a titration series was prepared of biotin-labeled B4 VH0/VK0 antibody pre-mixed at a final concentration of 100 ng/ml with one of the unlabeled, experimental B4 VHvx/VKvy antibodies at 800 ng/ml, 400 ng/ml, 200 ng/ml, 100 ng/ml, and 50 ng/ml in a PBS/2% serum buffer. As a control, the biotin-labeled antibody was pre-mixed with unlabeled B4 VH0/VK0 antibody at the same concentrations as above (inhibition control) or with buffer only (positive binding control). The combined antibodies were added to Daudi cells for 30 minutes at 4° C. A 1:200 dilution of FITC-labeled streptavidin was added to the cells and the samples were incubated for a further 30 minutes at 4° C. Bound amount of labeled B4 VH0/VK0 antibody was quantitated by FACS analysis, and the results were expressed as “percent inhibition,” relative to the positive binding control. The tested antibodies were B4 VH0/VK0 (C), B4 VHv1/VKv1 (1), B4 VHv2/VKv1 (2), B4 VHv1/VKv2 (3), B4 VHv2/VKv2 (4), B4 VHv3/VKv3 (5), B4 VHv4/VKv3 (6), B4 VHv3/VKv4 (7), B4 VHv4/VKv4 (8), B4 VHv5/VKv4 (9), and B4 VHv6/VKv4 (10).

[2] = target: T1, CD19 antigen on Daudi lymphoma cells; experiment: FACS competition on Daudi cells; unlabeled antibody 200 ng/ml (2x) vs competitor biotin-B4 VH0/VK0 100 ng/ml
Method: as §1

[3] = target: T1, CD19 antigen on Daudi lymphoma cells; experiment: FACS competition on Daudi cells; unlabeled antibody 50 ng/ml (0.5x) vs competitor biotin-B4 VH0/VK0 100 ng/ml
Method: as §1

[4] = target: T1, CD19 antigen on Daudi lymphoma cells; experiment: FACS competition on Daudi cells; unlabeled antibody 400 ng/ml (4x) vs competitor biotin-B4 VH0/VK0 100 ng/ml
Method: as §1

[5] = target: T1, CD19 antigen on Daudi lymphoma cells; experiment: FACS competition on Daudi cells; unlabeled antibody 800 ng/ml (8x) vs competitor biotin-B4 VH0/VK0 100 ng/ml
Method: as §1

[6] = target: T1, CD19 antigen on Daudi lymphoma cells; experiment: FACS competition on Daudi cells; unlabeled antibody 400 ng/ml (4x) vs competitor biotin-B4 VH0/VK0 100 ng/ml; remark: listed apart in the source
Method: as §1

[7] = target: T1, CD19 antigen on Daudi lymphoma cells; experiment: FACS competition on Daudi cells; unlabeled antibody 100 ng/ml (1x) vs competitor biotin-B4 VH0/VK0 100 ng/ml; remark: listed apart in the source
Method: as §1

[8] = target: T1, CD19 antigen on Daudi lymphoma cells; experiment: FACS competition on Daudi cells; unlabeled antibody 800 ng/ml (8x) vs competitor biotin-B4 VH0/VK0 100 ng/ml; remark: listed apart in the source
Method: as §1

[9] = target: T1, CD19 antigen on Daudi lymphoma cells; experiment: FACS competition on Daudi cells; unlabeled antibody 200 ng/ml (2x) vs competitor biotin-B4 VH0/VK0 100 ng/ml; remark: listed apart in the source
Method: as §1

[10] = target: T1, CD19 antigen on Daudi lymphoma cells; experiment: FACS competition on Daudi cells; unlabeled antibody 50 ng/ml (0.5x) vs competitor biotin-B4 VH0/VK0 100 ng/ml; remark: listed apart in the source
Method: as §1

Row | Binder | % inhibition of labeled B4 binding [1] [%] | % inhibition of labeled B4 binding [2] [%] | % inhibition of labeled B4 binding [3] [%] | % inhibition of labeled B4 binding [4] [%] | % inhibition of labeled B4 binding [5] [%] | % inhibition of labeled B4 binding [6] [%] | % inhibition of labeled B4 binding [7] [%] | % inhibition of labeled B4 binding [8] [%] | % inhibition of labeled B4 binding [9] [%] | % inhibition of labeled B4 binding [10] [%]
1 | B4 VHv6/VKv4 antibody (antibody, V domains shown, also called 10) VH: QVQLEQPGAEVVKPGASVKVSCKTSGYTFTSNWMHWVKQRPGQGLEWIGEIDPSDSYTNYNQKFDGKAKLTVDKSSSTAYMEVSDLTSEDSATYYCARGSNPYYYAMDYWGQGTSVTVSS VL: QIVLTQSPATLSASPGEKATMTCSASSGVNYMHWYQQKPGTSPKRWIYDTDKTASGVPARFSGSGSGTSYSLTISSMEAEDAATYYCHQRGSYTFGGGTKLEIK | 60 | 70 | 53 | 80 | 87 |  |  |  |  | 
2 | B4 VHv2/VKv1 antibody (antibody, V domains shown) VH: QVQLQQPGAEVVKPGASVRLSCKTSGYTFTSNWMHWVKQRPGQGLEWIGEIDPSDSYTNYNQKFKGKAELTVDKSSSTAYMEVSDLTSEDSAVYYCARGSNPYYYAMDYWGQGTSVTVSS VL: QIALTQEPAIMSASPGEKVTMTCSASSGVNYMHWYQQKPGTSPKRWIYDTSKLDSGVPARFSGSGSGTSYSLTISSMEAEDAATYYCHQRGSYTFGGGTKLEIK |  |  |  |  |  | 40 | 16 | 56 | 28 | 8
3 | B4 VHv1/VKv2 antibody (antibody, V domains shown) VH: QVQLQQPGAEVVKPGASVRLSCETSGYTFTSNWMHWVKQRPDQGLEWIGEIDPSDSYTNYNQKFKGKAELTVDKSSSTAYMEVSDLTSEDSAVYYCARGSNPYYYAMDYWGQGTSVTVSS VL: DIVLTQSPATLSASPGEKVTMTCSASSGVNYMHWYQQKPGTSPKRWIYDTSKLDSGVPARFSGSGSGTSYSLTISSMEAEDAATYYCHQRGSYTFGGGTKLEIK |  |  |  |  |  | 44 | 20 | 56 | 32 | 12
4 | B4 VHv1/VKv1 antibody (antibody, V domains shown) VH: QVQLQQPGAEVVKPGASVRLSCETSGYTFTSNWMHWVKQRPDQGLEWIGEIDPSDSYTNYNQKFKGKAELTVDKSSSTAYMEVSDLTSEDSAVYYCARGSNPYYYAMDYWGQGTSVTVSS VL: QIALTQEPAIMSASPGEKVTMTCSASSGVNYMHWYQQKPGTSPKRWIYDTSKLDSGVPARFSGSGSGTSYSLTISSMEAEDAATYYCHQRGSYTFGGGTKLEIK |  |  |  |  |  | 44 | 16 | 56 | 28 | 12
5 | B4 VHv3/VKv4 antibody (antibody, V domains shown) VH: QVQLEQPGAEVKKPGASVKVSCKASGYTFTSNWMHWVKQRPGQGLEWIGEIDPSDSYTNYNQKFKGKAKLTVDKSSSTAYMEVSDLTAEDSAVYYCARGSNPYYYAMDYWGQGTSVTVSS VL: QIVLTQSPATLSASPGEKATMTCSASSGVNYMHWYQQKPGTSPKRWIYDTDKTASGVPARFSGSGSGTSYSLTISSMEAEDAATYYCHQRGSYTFGGGTKLEIK |  |  |  |  |  | 52 | 20 | 60 | 36 | 12
6 | B4 VHv2/VKv2 antibody (antibody, V domains shown) VH: QVQLQQPGAEVVKPGASVRLSCKTSGYTFTSNWMHWVKQRPGQGLEWIGEIDPSDSYTNYNQKFKGKAELTVDKSSSTAYMEVSDLTSEDSAVYYCARGSNPYYYAMDYWGQGTSVTVSS VL: DIVLTQSPATLSASPGEKVTMTCSASSGVNYMHWYQQKPGTSPKRWIYDTSKLDSGVPARFSGSGSGTSYSLTISSMEAEDAATYYCHQRGSYTFGGGTKLEIK |  |  |  |  |  | 44 | 16 | 56 | 32 | 8
7 | B4 VHv3/VKv3 antibody (antibody, V domains shown) VH: QVQLEQPGAEVKKPGASVKVSCKASGYTFTSNWMHWVKQRPGQGLEWIGEIDPSDSYTNYNQKFKGKAKLTVDKSSSTAYMEVSDLTAEDSAVYYCARGSNPYYYAMDYWGQGTSVTVSS VL: QIVLTQSPATLSASPGEKATMTCSASSGANYMHWYQQKPGTSPKRWIYDTSKLASGVPARFSGSGSGTSYSLTIESMEAEDAATYYCHQRGSYTFGGGTKLEIK |  |  |  |  |  | 40 | 20 | 60 | 36 | 12

Second part, the binder after the results:

Row | % inhibition of labeled B4 binding [1] [%] | % inhibition of labeled B4 binding [2] [%] | % inhibition of labeled B4 binding [3] [%] | % inhibition of labeled B4 binding [4] [%] | % inhibition of labeled B4 binding [5] [%] | % inhibition of labeled B4 binding [6] [%] | % inhibition of labeled B4 binding [7] [%] | % inhibition of labeled B4 binding [8] [%] | % inhibition of labeled B4 binding [9] [%] | % inhibition of labeled B4 binding [10] [%] | Binder
8 |  |  |  |  |  | 48 | 16 | 60 | 32 | 12 | B4 VHv4/VKv4 antibody (antibody, V domains shown) VH: QVQLEQPGAEVVKPGASVKVSCKTSGYTFTSNWMHWVKQTPGKGLEWIGEIDPSDSYTNYNQKFDGKAKLTVDKSSSTAYMEVSDLTAEDSATYYCARGSNPYYYAMDYWGQGTSVTVSS VL: QIVLTQSPATLSASPGEKATMTCSASSGVNYMHWYQQKPGTSPKRWIYDTDKTASGVPARFSGSGSGTSYSLTISSMEAEDAATYYCHQRGSYTFGGGTKLEIK
9 | 57 | 70 | 47 | 87 | 90 |  |  |  |  |  | B4 VHv5/VKv4 antibody (antibody, V domains shown) VH: QVQLEQPGAEVKKPGASVKVSCKASGYTFTSNWMHWVRQAPGKGLEWIGEIDPSDSYTNYNQKFDGKAKLTVDKSSSTAYMEVSDLTSEDSATYYCARGSNPYYYAMDYWGQGTSVTVSS VL: QIVLTQSPATLSASPGEKATMTCSASSGVNYMHWYQQKPGTSPKRWIYDTDKTASGVPARFSGSGSGTSYSLTISSMEAEDAATYYCHQRGSYTFGGGTKLEIK
10 |  |  |  |  |  | 44 | 16 | 56 | 32 | 12 | B4 VHv4/VKv3 antibody (antibody, V domains shown) VH: QVQLEQPGAEVVKPGASVKVSCKTSGYTFTSNWMHWVKQTPGKGLEWIGEIDPSDSYTNYNQKFDGKAKLTVDKSSSTAYMEVSDLTAEDSATYYCARGSNPYYYAMDYWGQGTSVTVSS VL: QIVLTQSPATLSASPGEKATMTCSASSGANYMHWYQQKPGTSPKRWIYDTSKLASGVPARFSGSGSGTSYSLTIESMEAEDAATYYCHQRGSYTFGGGTKLEIK
